Results from the supplement of paper PMC7877785.
± gives the uncertainty stated by the source.

Experiment: self-splicing fitness, log relative to wild type (ln ratio); higher = more splicing; Tetrahymena group I intron in knt gene, E. coli kanamycin selection, DiMSum; sequences stand for … in CUCUCU…GGAGGGAAAAGUUAUCAGGCAUGCACCUGGUAGCUAGUCUUUAAACCAAUAGAUUGCAUCGGUUUAAAAGGCAAGACCGUCAAAUUGCGGGAAAGGGGUCAACAGCCGUUCAGUACCAAGUCUCAGGGGAAACUUUGAGAUGGCCUUGCAAAGGGUAUGGUAAUAAGCUGACGGACAUGGUCCUAACCACGCAGCCAAGUCCUAAGUCAACAGAUCUUCUGUUGAUAUGGAUGCAGUUCACAGACUAAAUGUCGGUCGGGGAAGAUGUAUUCUUCUCAUAAGAUAUAGUCGGACCUCUCCUUAAUGGGAGCUAGCGGAUGAAGUGAUGCAACACUGGAGCCGCUGGGAACUAAUUUGUAUGCGAAAGUAUAUUGAUUAGUUUUGGAGUACUCGUGGUCG
Method in brief: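 A randomised library covering all eight P1ex-region intron nucleotides was built with the intron in the knt kanamycin-resistance gene on pET-22b(+) and held in E. coli BL21(DE3). Cells were grown overnight at 37°C or 30°C on LB agar, with or without 25 μg/mL kanamycin, plus 100 μg/mL carbenicillin, 50 μM IPTG and 0.2% rhamnose, and pooled colonies were amplicon-sequenced on an Illumina HiSeq 2500. DiMSum fitness is the error-weighted combination of wild-type-normalised replicate fold changes, kanamycin versus none.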

Sequence | self-splicing fitness (ln) (30 °C) | self-splicing fitness (ln) (37 °C)
UUAGAGCAAUAUUACGAAGG | -1.72 ± 0.14 | -1.9 ± 0.23
UUAGAGCAAUAUUACGACAA | 0.166 ± 0.062 | 0.493 ± 0.09
UUAGAGCAAUAUUACGCAUA | -3.06 ± 0.27 | -0.817 ± 0.3
UUAGAGCAAUAUUACGGGUU | -4.25 ± 0.42 | -3.21 ± 0.35
UUAGAGCAAUAUUACGGUUA | -0.618 ± 0.15 | -1.17 ± 0.23
UUAGAGCAAUAUUACGUAGG | -2.7 ± 0.14 | -1.5 ± 0.15
UUAGAGCAAUAUUACGUCAA | -1.59 ± 0.16 | -1.15 ± 0.22
UUAGAGCAAUAUUACGUCAG | -1.02 ± 0.15 | -0.83 ± 0.17
UUAGAGCAAUAUUACGUCUA | -0.712 ± 0.071 | -0.109 ± 0.11
UUAGAGCAAUAUUACGUUUU | -3.39 ± 0.32 | -2.3 ± 0.27
UUAUAGCAAUAUUACGAAUC | -2.06 ± 0.4 | -1.85 ± 0.48
UUAUAGCAAUAUUACGACUA | -0.12 ± 0.23 | -0.299 ± 0.2
UUAUAGCAAUAUUACGAGGG | -3.47 ± 0.26 | -2.3 ± 0.27
UUAUAGCAAUAUUACGAGUG | -1.06 ± 0.11 | -1.32 ± 0.2
UUAUAGCAAUAUUACGAUUU | -1.23 ± 0.11 | -0.501 ± 0.13
UUAUAGCAAUAUUACGCACU | -1.15 ± 0.16 | -0.214 ± 0.21
UUAUAGCAAUAUUACGCCCG | -1.45 ± 0.36 | 
UUAUAGCAAUAUUACGCUGA | -2.17 ± 0.14 | -0.624 ± 0.13
UUAUAGCAAUAUUACGGUCG | -0.705 ± 0.11 | 0.176 ± 0.15
UUAUAGCAAUAUUACGGUUU | -1.66 ± 0.1 | -1.09 ± 0.12
UUAUAGCAAUAUUACGUCGU | -3.1 ± 0.3 | 
UUAUAGCAAUAUUACGUUAG | -1.1 ± 0.12 | -0.717 ± 0.14
UUAUAGCAAUAUUACGUUGU | -3.44 ± 0.27 | -2.38 ± 0.23
UUCAAGCAAUAUUACGAAAC | -2.77 ± 0.31 | -2.89 ± 0.35

Sequence | self-splicing fitness (ln) (30 °C) | self-splicing fitness (ln) (37 °C)
UUCAAGCAAUAUUACGAGCU | -2.99 ± 0.23 | -1.33 ± 0.18
UUCAAGCAAUAUUACGCAGG | -2.71 ± 0.14 | -1.78 ± 0.13
UUCAAGCAAUAUUACGCGGA | -2.64 ± 0.16 | -2.09 ± 0.15
UUCAAGCAAUAUUACGCGUC | -2.89 ± 0.15 | -0.969 ± 0.16
UUCAAGCAAUAUUACGGAUC | -1.5 ± 0.25 | -2.84 ± 0.21
UUCAAGCAAUAUUACGGCAA | 0.101 ± 0.1 | 0.0563 ± 0.11
UUCAAGCAAUAUUACGGGCC |  | -2.94 ± 0.48
UUCAAGCAAUAUUACGGGGC | -3.6 ± 0.27 | -2.8 ± 0.33
UUCAAGCAAUAUUACGGGGG | -3.34 ± 0.26 | -0.739 ± 0.16
UUCAAGCAAUAUUACGGGUG | -0.476 ± 0.045 | -0.593 ± 0.06
UUCAAGCAAUAUUACGGUGU | -2.98 ± 0.18 | -2.49 ± 0.17
UUCAAGCAAUAUUACGUACC |  | -1.69 ± 0.2
UUCAAGCAAUAUUACGUAGC | -4.06 ± 0.26 | -2.3 ± 0.25
UUCAAGCAAUAUUACGUAUA | -1.48 ± 0.1 | -0.136 ± 0.096
UUCAAGCAAUAUUACGUCUC | -3.33 ± 0.26 | -1.74 ± 0.18
UUCAAGCAAUAUUACGUGAA | -0.675 ± 0.089 | -0.479 ± 0.12
UUCAAGCAAUAUUACGUUAG | -3.23 ± 0.12 | -1.32 ± 0.089
UUCAAGCAAUAUUACGUUGU | -3.87 ± 0.19 | -1.34 ± 0.12
UUCCAGCAAUAUUACGAAGA | -0.997 ± 0.11 | -0.671 ± 0.1
UUCCAGCAAUAUUACGAAGC | -2.59 ± 0.32 | -1.92 ± 0.26
UUCCAGCAAUAUUACGAAUA | -1.24 ± 0.15 | -0.772 ± 0.16
UUCCAGCAAUAUUACGACCA | -0.177 ± 0.26 | -0.862 ± 0.23
UUCCAGCAAUAUUACGACGA | -0.529 ± 0.12 | 0.216 ± 0.15
UUCCAGCAAUAUUACGACUC | -3.04 ± 0.24 | -1.67 ± 0.19
